# Values joined by “and” are separate entries in the source; they are usually repeats but may differ in a detail not shown here. Equal values may be shown once. “Also recorded” adds a separate entry of the source. Ends that are not written are not given here.
# What was measured:
# human Kv1.3 = human Kv1.3 (Homo sapiens, UniProt P22001); type: cell-based; details: for IC50: read-out: IC50 Sustained
# IL-2R on CD4+ T cells = type: cell-based, human
# CD40L on CD4+ T cells = type: cell-based, human
# [1] = tested on: IL-2 production in human whole blood; type: cell-based
# Sequence of human Kv1.3 (P22001 whole entry): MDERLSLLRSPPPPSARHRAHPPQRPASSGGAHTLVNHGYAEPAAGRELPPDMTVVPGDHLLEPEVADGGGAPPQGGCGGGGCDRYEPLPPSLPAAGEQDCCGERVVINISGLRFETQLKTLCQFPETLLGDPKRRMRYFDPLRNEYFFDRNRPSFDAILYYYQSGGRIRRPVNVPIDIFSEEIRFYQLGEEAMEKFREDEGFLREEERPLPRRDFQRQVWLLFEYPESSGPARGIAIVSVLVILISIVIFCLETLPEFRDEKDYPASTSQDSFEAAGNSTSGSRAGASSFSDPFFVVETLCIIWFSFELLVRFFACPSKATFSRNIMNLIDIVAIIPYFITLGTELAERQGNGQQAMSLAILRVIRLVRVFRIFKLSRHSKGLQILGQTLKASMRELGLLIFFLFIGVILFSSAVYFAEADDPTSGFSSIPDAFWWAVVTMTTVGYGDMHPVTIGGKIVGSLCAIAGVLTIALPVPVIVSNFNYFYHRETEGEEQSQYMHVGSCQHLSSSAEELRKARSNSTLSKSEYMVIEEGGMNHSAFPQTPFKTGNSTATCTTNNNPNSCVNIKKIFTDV
molecule,measurement,setting,value
"Fc-L10-OSK1[K7S,E16K,K20D]: OSK1-peptibody with triple amino acid substitutions at positions 7, 16 and 20",fold less potent than the synthetic OSK1 toxin peptide,human Kv1.3,approximately 21 fold
PEG-Fc-L10-SHK(2-35),IC50,human Kv1.3,0.175 nM and 0.158 nM
"dendrotoxin-K [DTX-K, reference compound]",block of thapsigargin-induced upregulation of the IL-2R on T cells (in words),IL-2R on CD4+ T cells,no significant activity
same,block of thapsigargin-induced upregulation of CD40L on T cells (in words),CD40L on CD4+ T cells,no significant activity
"SEQ ID No: 4989: OSK1 analog without beta strand 1 (labeled des 1-7), Table 42 (CKISRQCLKPCKDAGMRFGKCMNGKCHC-NH2; ends and bridges not checked)",blockade of the whole blood cytokine response / inflammation (in words),[1],still retain activity in blocking inflammation
Fc-L10-OSK1[K7S],fold less potent than the synthetic OSK1 toxin peptide,human Kv1.3,approximately 10 fold
PEG-Fc-L10-OSK1,IC50,human Kv1.3,0.256 nM and 0.332 nM
FcLoop-L4-OsK1-L4: FcLoop OSK1 toxin conjugate as named in b1013 only (protein) MDKTHTCPPCPAPELLGGPSVFLFPPKPKDTLMISRTPEVTCVVVDVSHEDPEVKFNWYVDGVEVHNAKTKPREEQYNSTYRVVSVLTVLHQDWLNGKEYKCKVSNKALPAPIEKTISKAKGQPREPQVYTLPPSRDELGGGGGVIINVKCKISRQCLEPCKKAGMRFGKCMNGKCHCTPKGGTKNQVSLTCLVKGFYPSDIAVEWESNGQPENNYKTTPPVLDSDGSFFLYSKLTVDKSRWQQGNVFSCSVMHEALHNHYTQKSLSLSPGK,blockade of the whole blood cytokine response / inflammation (in words),[1],IC50 values in the pM range
"FcLoop-L2-OsK1-L2: OsK1 inserted into the human IgG1 Fc-loop domain with Gly linkers (protein, Definition of Artificial Sequence: Synthetic protein) MDKTHTCPPCPAPELLGGPSVFLFPPKPKDTLMISRTPEVTCVVVDVSHEDPEVKFNWYVDGVEVHNAKTKPREEQYNSTYRVVSVLTVLHQDWLNGKEYKCKVSNKALPAPIEKTISKAKGQPREPQVYTLPPSRDELGGGVIINVKCKISRQCLEPCKKAGMRFGKCMNGKCHCTPKGGTKNQVSLTCLVKGFYPSDIAVEWESNGQPENNYKTTPPVLDSDGSFFLYSKLTVDKSRWQQGNVFSCSVMHEALHNHYTQKSLSLSPGK",blockade of the whole blood cytokine response / inflammation (in words),[1],IC50 values in the pM range
PEGylated CH2-OSK1: CH2-OSK1 fusion protein mono-PEGylated with 20 kD methoxy-PEG-aldehyde (conjugate) MGGHHHHHHGGGPSVFLFPPKPKDTLMISRTPEVTCVVVDVSHEDPEVKFNWYVDGVEVHNAKTKPREEQYNSTYRVVSVLTVLHQDWLNGKEYKCKVSNKALPAPIEKTISGGGGSGGGGSGVIINVKCKISRQCLEPCKKAGMRFGKCMNGKCHCTPK,blockade of the whole blood cytokine response / inflammation (in words),[1],active in blocking inflammation; also recorded: modest blockade of the whole blood cytokine response
"FcLoop-L2-ShK-L2: ShK inserted into the human IgG1 Fc-loop domain with Gly linkers (protein, Definition of Artificial Sequence: Synthetic protein) MDKTHTCPPCPAPELLGGPSVFLFPPKPKDTLMISRTPEVTCVVVDVSHEDPEVKFNWYVDGVEVHNAKTKPREEQYNSTYRVVSVLTVLHQDWLNGKEYKCKVSNKALPAPIEKTISKAKGQPREPQVYTLPPSRDELGGRSCIDTIPKSRCTAFQCKHSMKYRLSFCRKTCGTCGGTKNQVSLTCLVKGFYPSDIAVEWESNGQPENNYKTTPPVLDSDGSFFLYSKLTVDKSRWQQGNVFSCSVMHEALHNHYTQKSLSLSPGK",blockade of the whole blood cytokine response / inflammation (in words),[1],IC50 values in the pM range
